Laboratory results from publication PMC11910139.

Target: ENG-HA (endoglin, HA-tagged, ectopically expressed) (UniProt P17813)
Assay: flow cytometry on cells; cells (HEK293T with or without ENG overexpression, DPSCs with or without ENG knockdown or anti-ENG pretreatment, HUVECs) incubated with His-tagged DSP (0.5 μg/ml) or BSA at 37 °C for 1 h; detected with anti-His-tag mAb-Alexa Fluor 488 and PE anti-human ENG antibody

UniProt P17813, sequence (P17813 26-658): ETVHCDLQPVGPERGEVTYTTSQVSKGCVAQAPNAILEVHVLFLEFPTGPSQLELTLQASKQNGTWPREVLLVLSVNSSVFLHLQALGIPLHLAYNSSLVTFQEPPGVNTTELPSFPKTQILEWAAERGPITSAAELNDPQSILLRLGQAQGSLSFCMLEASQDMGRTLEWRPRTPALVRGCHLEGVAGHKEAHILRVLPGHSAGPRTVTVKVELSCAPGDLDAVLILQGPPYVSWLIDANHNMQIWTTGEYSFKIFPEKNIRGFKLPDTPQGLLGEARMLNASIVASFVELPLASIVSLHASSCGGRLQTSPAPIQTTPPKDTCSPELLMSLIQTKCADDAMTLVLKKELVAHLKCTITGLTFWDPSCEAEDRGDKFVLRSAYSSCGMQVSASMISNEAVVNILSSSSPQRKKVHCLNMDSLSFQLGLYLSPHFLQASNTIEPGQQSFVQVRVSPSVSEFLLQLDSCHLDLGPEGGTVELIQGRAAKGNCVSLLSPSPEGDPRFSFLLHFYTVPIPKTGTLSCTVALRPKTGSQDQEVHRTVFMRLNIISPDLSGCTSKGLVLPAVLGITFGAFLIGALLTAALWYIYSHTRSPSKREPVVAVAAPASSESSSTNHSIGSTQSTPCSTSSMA

## recombinant DSP-His protein (domain or fragment)
  fold increase of the DSP-His signal on HEK293T cells with ectopic ENG against cells without: 7.5 fold
